Legend:
[1] = target: full-length VanR from Streptomyces coelicolor, activated state (beryllium fluoride bound at Asp51) (Streptomyces coelicolor); assay: crystal structure; activated VanRSc co-crystallized with beryllium fluoride, microbatch under oil, 2.5 M NaCl, 0.1 M Tris pH 7, 0.2 M MgCl2, room temperature; monomer in the asymmetric unit, dimer by crystal symmetry
VanRSc = target: T1, VanRSc (Streptomyces coelicolor, UniProt Q8CJW1); conditions: BeF3- formed from BeSO4 and NaF; Mg2+ present; phosphomimetic bound to Asp51 in the receiver domain; crystals at pH 7, room temperature
T1 construct: gene SCO3590

[2] = target: T2, full-length VanR from Streptomyces coelicolor, inactive (unphosphorylated) state (Streptomyces coelicolor); assay: AUC; sedimentation equilibrium, 4°C, 18 000, 20 000 and 22 000 rev/min, without beryllium fluoride; global fit, monomer-dimer model (dimer to monomers); conditions: both partners purified
T2 chain: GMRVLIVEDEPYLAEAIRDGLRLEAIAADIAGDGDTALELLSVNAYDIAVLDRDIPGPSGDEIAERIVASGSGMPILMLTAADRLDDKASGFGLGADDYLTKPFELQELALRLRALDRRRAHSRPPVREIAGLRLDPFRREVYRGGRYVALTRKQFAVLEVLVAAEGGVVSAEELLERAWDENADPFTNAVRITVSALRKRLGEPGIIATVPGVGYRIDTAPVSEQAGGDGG

[3] = target: T2, full-length VanR from Streptomyces …; assay: AUC; sedimentation velocity, 20°C, 50 mM Tris pH 7.5, 50 mM NaCl, 10 mM MgCl2, without beryllium fluoride; 36.5 µM monomer; monomer-dimer model (dimer to monomers); conditions: both partners purified

For “full-length VanR from Streptomyces coelicolor, activated state (beryllium fluoride bound at Asp51) (natural protein)”, the stoichiometry N [1] was 2.

In the case of `[F][Be-]([F])[F]` [beryllium fluoride], the “X-ray crystallography, 2.03 A co-crystal structure” value (VanRSc) is reported as “The Be atom is bound to one of the carboxylate O atoms of Asp51”.

B1: full-length VanR from Streptomyces coelicolor, inactive (unphosphorylated) state (natural protein)
chain: T2 chain
modifications: unphosphorylated at Asp51 (paper numbering; entity position 52), no beryllium fluoride; Mg2+ present (10 mM MgCl2 in AUC). Wild-type residues 1-231 plus the N-terminal Gly left after SUMO cleavage. …
B1 showed a Kd [2] of 37 µM and a Kd [3] of over 1000 µM.

From publication PMC8329863 (Acta Crystallographica. Section D, Structural Biology, 2021)
